The values below come from patent US20090111753A1, “Nogo-A Polypeptide Fragments, Variant Nogo Receptor-1 Polypeptides, and Uses Thereof” (Yale University, priority 2004, published 2009).

One experiment concerns the target T1, AP-Nogo66 (Homo sapiens, UniProt Q9NQC3).
T1 construct: made in house; NgR mutants: COS-7
T1 sequence (Q9NQC3 1055-1120 limits assumed): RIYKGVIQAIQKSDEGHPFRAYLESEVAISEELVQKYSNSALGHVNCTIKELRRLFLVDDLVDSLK
The experiment in a line: Binding of AP-Nogo66 to COS-7 cells expressing NgR mutants. Details: key: ++: WT level; +: weaker than wild type; trace binding; −: no binding. As to conditions: AP-Ng66 5 nM; level of binding compared to wild type NgR. The method, then:
(§1) FIG. 4A. […] Binding of AP or AP fused NgR ligands to COS-7 cells expressing different NgR mutants as indicated. The concentrations of ligands applied were: AP, 30 nM; AP-Ng66, 5 nM; AP-Ng33, 10 nM; AP-B4C, 10 nM; AP-B4C66, 0.5 nM; AP-Lingo-1, 10 nM; AP-OMGP, 10 nM; AP-MAG, 30 nM. These concentrations are close to the binding Kd of these proteins to NgR so that any […] is reflected linearly in staining.
(§2) FIG. 4B. AP binding of NgR ligands to NgR mutants expressed as percentage of wild type NgR. AP after incubation with AP fused ligands, AP bound to COS-7 cells expressing NgR or NgR mutants were stained and measured.
(§3) To better define how multiple ligands bind to the NgR protein, we examined a series of Ala-substituted NgR for ligand binding activity. NgR mutagenesis was done using the Quick Change Multisite Directed Mutagenesis Kit (Stratagene catalog #200514). Human NgR1 was used as a template. Ala substitutions were generated for each of the charged residues predicted to be solvent accessible at the surface of the ligand binding domain of NgR (Barton, W. A., et al., Embo J. 22:3291-3302 (2003); He, X. L., et al., Neuron 38:177-185 (2003)). We generated mutants in which 1-8 surface residues localized within 5 A of one another were Ala-substituted. Because of the coiling nature of the LRR structure, as residues juxtaposed on the protein surface are commonly separated by approximately 25 residues in the primary structure. In addition to mutations in specific charged surface patches, other mutations were targeted to glycosylation sites and to regions predicted to be involved in ligand binding based on the NgR structure (Barton, W. A., et al., Embo J. 22:3291-3302 (2003); He, X. L., et al., Neuron 38:177-185 (2003)). In addition, a variant corresponding to a human polymorphism was examined (D259N). None of the mutations altered the Leu residues that define the LRR structure itself or the Cys residues critical in the amino and carboxyl terminal capping domains. The vast majority of such Ala surface substitution mutants were expressed as immunoreactive polypeptides with a molecular weight and an expression level indistinguishable from wild type NgR (FIG. 4C and data not shown).
(§4) This collection of 74 individual NgR mutants was interrogated for AP-Nogo-66, AP-Amino-Nogo-B4C, AP-MAG, AP-OMgp, and AP-Lingo-1 binding. AP-Nogo66, AP-MAG, AP-OMGP and AP-Lingo-1 constructs are described elsewhere (Fournier, A. E., et al., Nature 409:341-346 (2001); Liu, B. P., et al., Science 297:1190-1193 (2002); Mi, S., et al., Nat. Neurosci. 7:221-228 (2004); Wang, K. C., et al., Nature 417:941-944 (2002b)). The properties of the NgR mutants fell into one of three major categories (Table II and FIG. 5). A number of Ala substituted NgR polypeptides bound all of the ligands at wild type levels. […] In addition, a significant extent of the concave surface is dispensable for ligand binding.
(§5) Binding of Alanine substituted NgR mutants to NgR ligands were compared to wild type NgR and the levels of binding were categorized as ++ (WT level), + (weaker than wild type), tr (trace binding), − (no binding), N/A (not determined). NgR mutant proteins were also subjected to SDS-PAGE and probed by anti-NgR antibodies. Mutants with expression level similar to WT NgR were labeled as “y”.

A further experiment has as its target T2, AP-B4C (Homo sapiens, UniProt Q9NQC3).
T2 construct: a.a; 950-1018 (AmNg B4C); made in house; host or cells: AP ligand: HEK293T conditioned medium; NgR mutants: COS-7
T2 sequence (Q9NQC3 950-1018): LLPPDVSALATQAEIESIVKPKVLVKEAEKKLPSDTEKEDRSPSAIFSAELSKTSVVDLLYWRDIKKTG
The experiment is described as follows: Binding of AP-B4C to COS-7 cells expressing NgR mutants. As to conditions: AP-B4C 10 nM; level of binding compared to wild type NgR. On the set-up: key: ++: WT level; +: weaker than wild type; trace binding; −: no binding. The method, then:
as §1, §2, §3, §4, §5

The subject of the next experiment is AP-B4C66. The experiment is described as follows: Binding of AP-B4C66 to COS-7 cells expressing NgR mutants. On the set-up: key: ++: WT level; +: weaker than wild type; trace binding; −: no binding. As to conditions: AP-B4C66 0.5 nM; level of binding compared to wild type NgR. The method, then: as §1, §2, §3, §4, §5
The target in the next experiment is T3, AP-Lingo-1 (Homo sapiens, UniProt Q96FE5).
T3 construct: made in house; NgR mutants: COS-7
T3 sequence (Q96FE5 40-538 limits assumed): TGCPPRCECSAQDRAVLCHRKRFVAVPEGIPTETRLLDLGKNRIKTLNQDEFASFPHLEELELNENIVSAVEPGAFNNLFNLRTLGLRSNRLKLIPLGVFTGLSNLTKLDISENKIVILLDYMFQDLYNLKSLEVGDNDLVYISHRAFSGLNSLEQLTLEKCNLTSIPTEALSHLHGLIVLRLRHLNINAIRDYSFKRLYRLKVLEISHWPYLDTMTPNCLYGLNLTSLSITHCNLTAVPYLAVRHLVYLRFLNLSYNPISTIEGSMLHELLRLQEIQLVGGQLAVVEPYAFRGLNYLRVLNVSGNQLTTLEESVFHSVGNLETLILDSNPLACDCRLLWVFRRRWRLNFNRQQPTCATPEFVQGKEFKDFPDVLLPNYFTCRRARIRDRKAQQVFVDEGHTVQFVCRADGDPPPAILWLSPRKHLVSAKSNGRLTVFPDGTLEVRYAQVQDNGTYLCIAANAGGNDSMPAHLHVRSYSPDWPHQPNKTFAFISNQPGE
The experiment in a line: Binding of AP-Lingo-1 to COS-7 cells expressing NgR mutants. Details: key: ++: WT level; +: weaker than wild type; trace binding; −: no binding. As to conditions: AP-Lingo-1 10 nM; level of binding compared to wild type NgR. The method, then:
as §1, §2, §3, §4, §5

A further experiment has as its system AP-OMgp. The experiment is described as follows: Binding of AP-OMgp to COS-7 cells expressing NgR mutants. Particulars: AP-OMGP 10 nM; level of binding compared to wild type NgR. Details: key: ++: WT level; +: weaker than wild type; trace binding; −: no binding. The method, then: as §1, §2, §3, §4, §5
Another experiment concerns AP-MAG. The experiment is described as follows: Binding of AP-MAG to COS-7 cells expressing NgR mutants. Details: key: ++: WT level; +: weaker than wild type; trace binding; −: no binding. As to conditions: AP-MAG 30 nM; level of binding compared to wild type NgR. The method, then:
as §1, §2, §3, §4, §5

The next experiment relates to NgR ligands. The experiment is described as follows: Binding of alanine substituted NgR mutants to NgR ligands, summary categories. As to conditions: AP-Nogo66, AP-B4C, AP-B4C66, AP-Lingo-1, AP-OMgp and AP-MAG; compared to wild type NgR.
Description: as §3, §4
Alanine substituted NgR mutants were tested for their binding to AP-Nogo66, AP-B4C, AP-B4C66, AP-Lingo-1, AP-OMgp and AP-MAG and they fall into three categories: (1) Mutants that lose binding to all NgR ligands. (2) Mutants that still maintain binding to all NgR ligands. […] The D259N mutant is an asparagine substitution to mimic a human polymorphism.

B1: WT: wild type human NgR1 expressed in COS-7 cells (protein, UniProt Q9BZR6 27-447, looked up)
Reticulon-4 receptor: CPGACVCYNEPKVTTSCPQQGLQAVPVGIPAASQRIFLHGNRISHVPAASFRACRNLTILWLHSNVLARIDAAAFTGLALLEQLDLSDNAQLRSVDPATFHGLGRLHTLHLDRCGLQELGPGLFRGLAALQYLYLQDNALQALPDDTFRDLGNLTHLFLHGNRISSVPERAFRGLHSLDRLLLHQNRVAHVHPHAFRDLGRLMTLYLFANNLSALPTEALAPLRALQYLRLNDNPWVCDCRARPLWAWLQKFRGSSSEVPCSLPQRLAGRDLKRLAANDLQGCAVATGPYHPIWTGRATDEEPLGLPKCCQPDAADKASVLEPGRPASAGNALKGRVPPGDSPPGNGSGPRHINDSPFGTLPGSAEPPLTAVRPEGSEPPGFPTSGPRRRPGCSRKNRTRSHCRLGQAGSGGGGTGDSEGS
In the case of B1, the Ng66 entry in the experiment with AP-Nogo66 is listed as “++”. Also, in the experiment with AP-B4C, the B4C entry is recorded as “++”. For the same molecule, the B4C-66 entry in the experiment with AP-B4C66 is “++”. Moreover, the Lingo-1 entry with AP-Lingo-1 is listed as “++”. For the same molecule, the OMgp entry in the experiment with AP-OMgp is reported as “++”. In addition, in the experiment with AP-MAG, the MAG result is listed as “++”.

B2: 256, 259: human NgR1 mutant, listed residues mutated to alanine (protein)
chain: CPGACVCYNEPKVTTSCPQQGLQAVPVGIPAASQRIFLHGNRISHVPAASFRACRNLTILWLHSNVLARIDAAAFTGLALLEQLDLSDNAQLRSVDPATFHGLGRLHTLHLDRCGLQELGPGLFRGLAALQYLYLQDNALQALPDDTFRDLGNLTHLFLHGNRISSVPERAFRGLHSLDRLLLHQNRVAHVHPHAFRDLGRLMTLYLFANNLSALPTEALAPLRALQYLALNANPWVCDCRARPLWAWLQKFRGSSSEVPCSLPQRLAGRDLKRLAANDLQGCAVATGPYHPIWTGRATDEEPLGLPKCCQPDAADKASVLEPGRPASAGNALKGRVPPGDSPPGNGSGPRHINDSPFGTLPGSAEPPLTAVRPEGSEPPGFPTSGPRRRPGCSRKNRTRSHCRLGQAGSGGGGTGDSEGSGALPSLTCSLTPLGLALVLWTVLGPC
In the case of B2, in the experiment with NgR ligands, the “ligand binding category of NgR mutant (Table II)” value (shortened to “ligand binding category”) was “Differential binding”. Also, in the experiment with AP-Nogo66, the Ng66 entry is reported as “++”. Further, the B4C entry with AP-B4C is on record as “++”. Moreover, the B4C-66 result in the experiment with AP-B4C66 is reported as “++”. Further, the Lingo-1 result with AP-Lingo-1 was “++”. Moreover, the OMgp entry in the experiment with AP-OMgp is recorded as “+”. Further, in the experiment on AP-MAG, the MAG entry is on record as “−”.

B3: 78, 81: human NgR1 mutant, listed residues mutated to alanine (protein)
chain: CPGACVCYNEPKVTTSCPQQGLQAVPVGIPAASQRIFLHGNRISHVPAASFAACANLTILWLHSNVLARIDAAAFTGLALLEQLDLSDNAQLRSVDPATFHGLGRLHTLHLDRCGLQELGPGLFRGLAALQYLYLQDNALQALPDDTFRDLGNLTHLFLHGNRISSVPERAFRGLHSLDRLLLHQNRVAHVHPHAFRDLGRLMTLYLFANNLSALPTEALAPLRALQYLRLNDNPWVCDCRARPLWAWLQKFRGSSSEVPCSLPQRLAGRDLKRLAANDLQGCAVATGPYHPIWTGRATDEEPLGLPKCCQPDAADKASVLEPGRPASAGNALKGRVPPGDSPPGNGSGPRHINDSPFGTLPGSAEPPLTAVRPEGSEPPGFPTSGPRRRPGCSRKNRTRSHCRLGQAGSGGGGTGDSEGSGALPSLTCSLTPLGLALVLWTVLGPC
For the molecule B3, in the experiment with NgR ligands, the “ligand binding category” value was “Differential binding”. In the experiment with AP-Nogo66, the Ng66 result was “++”. In addition, the B4C result with AP-B4C was “++”. In the experiment on AP-B4C66, the B4C-66 entry is listed as “++”. Moreover, the Lingo-1 entry in the experiment with AP-Lingo-1 is listed as “tr”. In the experiment on AP-OMgp, the OMgp result is on record as “++”.

B4: 36, 38, 61: human NgR1 mutant, listed residues mutated to alanine (protein)
chain: CPGACVCYNAPAVTTSCPQQGLQAVPVGIPAASQAIFLHGNRISHVPAASFRACRNLTILWLHSNVLARIDAAAFTGLALLEQLDLSDNAQLRSVDPATFHGLGRLHTLHLDRCGLQELGPGLFRGLAALQYLYLQDNALQALPDDTFRDLGNLTHLFLHGNRISSVPERAFRGLHSLDRLLLHQNRVAHVHPHAFRDLGRLMTLYLFANNLSALPTEALAPLRALQYLRLNDNPWVCDCRARPLWAWLQKFRGSSSEVPCSLPQRLAGRDLKRLAANDLQGCAVATGPYHPIWTGRATDEEPLGLPKCCQPDAADKASVLEPGRPASAGNALKGRVPPGDSPPGNGSGPRHINDSPFGTLPGSAEPPLTAVRPEGSEPPGFPTSGPRRRPGCSRKNRTRSHCRLGQAGSGGGGTGDSEGSGALPSLTCSLTPLGLALVLWTVLGPC
Regarding B4, the “ligand binding category” value with NgR ligands was “Differential binding”. For the same molecule, the Ng66 entry in the experiment with AP-Nogo66 is recorded as “+”. Also, in the experiment with AP-B4C, the B4C entry is given as “++”. The B4C-66 result in the experiment on AP-B4C66 was “++”. The Lingo-1 entry with AP-Lingo-1 is “tr”. In addition, the OMgp entry in the experiment with AP-OMgp was “+”. For the same molecule, the MAG entry in the experiment with AP-MAG was “tr”.
